Patent US6521458

Biological target: barnase (UniProt P00648)
Experiment: cell-based or functional assay

Chain of UniProt P00648 (P00648 48-157 limits assumed): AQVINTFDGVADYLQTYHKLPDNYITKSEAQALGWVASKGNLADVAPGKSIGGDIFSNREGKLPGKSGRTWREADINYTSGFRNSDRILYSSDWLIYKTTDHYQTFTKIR

barstar (from UniProt P11540 2-90)
percent LUC positive shoots from barstar5 explants transformed with pBH700 (against 15% from wild type explants without barstar): 46%
